Assay results reported in patent US7314747B1, “SMRT co-repressors, transcriptional co-repressors that interact with nuclear hormone receptors” (The Salk Institute for Biological Studies, priority 1995, dated 2008).

Columns and labels:
[1] = target: GST-SMRT (GST fusion of the C-SMRT encoded by the yeast two hybrid clone) (human) (UniProt Q9Y618); assay: far-western: 35S-labelled receptor on immobilized GST-SMRT, phosphoimager
E52-RAR interaction = target: T1, E52-RAR interaction (Homo sapiens, UniProt P10276); assay: Yeast two-hybrid assay, E52-RAR interaction; assay type: cell-based; conditions: 3 μM ligand
T1 construct: hRAR (amino acids 186-462); expressed in transfected cells; host or cells: Y190 yeast cells
T1 sequence (P10276 186-462): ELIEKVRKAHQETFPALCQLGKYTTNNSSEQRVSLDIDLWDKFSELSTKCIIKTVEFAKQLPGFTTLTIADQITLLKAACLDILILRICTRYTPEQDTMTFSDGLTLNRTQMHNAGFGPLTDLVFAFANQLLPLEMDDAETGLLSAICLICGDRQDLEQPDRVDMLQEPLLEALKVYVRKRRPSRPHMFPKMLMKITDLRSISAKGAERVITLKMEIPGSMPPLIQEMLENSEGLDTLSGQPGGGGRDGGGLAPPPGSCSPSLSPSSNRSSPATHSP
Procedure: Transformants were selected onto DO-Leu-Trp-His plates containing 40 mM 3-aminotriazole (Sigma) for 3-4 days. Surviving yeast colonies were picked as primary positives and restreaked on selection plates to isolate single clones. Activation domain plasmids were rescued from the selected positive transformants for further analysis. Each clone was evaluated by testing its potential interaction with several other nuclear receptors using the yeast two-hybrid assays. […] Quantitative liquid assay of β-galactosidase was performed on positive clones 16 hr after treating the yeast cells with no ligand, or with 3 μM ligand.

EcR A483T = target: T2, EcR A483T (Drosophila, UniProt P34021 1-878); assay: mammalian two-hybrid in CV-1 cells (with VP16-USP)
T2 construct: CMV vector, cotransfected with VP16-USP; also called repression-defective EcR allele
T2 sequence (looked up): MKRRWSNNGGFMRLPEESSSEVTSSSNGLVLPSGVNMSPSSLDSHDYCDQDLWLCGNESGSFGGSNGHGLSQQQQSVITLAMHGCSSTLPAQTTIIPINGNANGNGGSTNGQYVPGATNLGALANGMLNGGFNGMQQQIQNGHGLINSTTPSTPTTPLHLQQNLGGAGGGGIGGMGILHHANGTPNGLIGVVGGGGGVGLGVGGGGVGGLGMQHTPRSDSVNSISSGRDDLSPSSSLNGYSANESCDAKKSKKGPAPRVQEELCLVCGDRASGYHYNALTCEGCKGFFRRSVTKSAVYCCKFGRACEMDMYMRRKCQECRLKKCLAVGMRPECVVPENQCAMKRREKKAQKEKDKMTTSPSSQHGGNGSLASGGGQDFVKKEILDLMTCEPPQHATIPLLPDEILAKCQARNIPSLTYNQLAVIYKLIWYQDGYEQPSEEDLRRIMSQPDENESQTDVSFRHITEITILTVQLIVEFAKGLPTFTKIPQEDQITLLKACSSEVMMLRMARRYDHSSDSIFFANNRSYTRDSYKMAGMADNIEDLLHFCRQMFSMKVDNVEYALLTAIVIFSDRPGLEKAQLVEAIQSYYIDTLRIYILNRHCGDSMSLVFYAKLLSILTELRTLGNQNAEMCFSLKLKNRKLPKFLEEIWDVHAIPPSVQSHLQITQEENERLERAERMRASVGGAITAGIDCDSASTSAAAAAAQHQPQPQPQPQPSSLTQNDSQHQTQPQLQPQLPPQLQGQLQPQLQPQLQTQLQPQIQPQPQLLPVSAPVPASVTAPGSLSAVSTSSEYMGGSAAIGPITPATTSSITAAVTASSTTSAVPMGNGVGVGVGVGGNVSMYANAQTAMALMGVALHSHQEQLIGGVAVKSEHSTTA

[2] = target: T3, GST-SMRT (GST fusion of the C-SMRT encoded by the yeast two hybrid clone) (human, UniProt Q9Y618 2000-2514); assay: far-western: 35S-labelled receptor on GST-SMRT, phosphoimager
T3 construct: also called immobilized GST-SMRT; not shown: glutathione S-transferase (GST) tag

[3] = test system: GAL4-TK-luciferase reporter in CV-1 cells; assay: GAL4-SMRT amino terminus fusions cotransfected with GAL4-TK-luciferase reporter in CV-1 cells; assay type: cell-based, Monkey; conditions: luciferase normalized to β-galactosidase
Procedure: Experiments were performed using the plasmids pCMX-GAL4 DBD and pMH100-TK-luc (Nagy et al., (1997), supra). Standard PCR amplifications were used to generate GAL4 fusion constructs. All constructs were verified by double-stranded sequencing to confirm identity and reading frame.
Monkey CV-1 cells were grown in DMEM supplemented with 10% resin-charcoal stripped fetal bovine serum (FBS), 50 units/ml of penicillin G, and 50 μg/ml of streptomycin sulfate at 37° C. in 7% CO2. V-1 cells (60-70% confluence, 48-well plate) were cotransfected with 16 ng of pCMX-GAL4, 100 ng of pMH100-TK-luc, and 100 ng of pCMX-β galactosidase in 200 μl of DMEM containing 10% super-stripped fetal calf serum (FCS) by the N-(1-(2,3-dioleoyloxy)propyl)-N,N,N-trimethylammonium methylsulfate (DOTAP)-mediated procedure (Nagy et al., (1997), supra). The amount of DNA in each transfection was kept constant by addition of pCMX. After 24 hr, the medium was replaced; cells were harvested and assayed for luciferase activity 36 to 48 hr after transfection. […]
Based on the high degree of identity between regions of the SMRT amino terminus and the corresponding N-CoR region, the ability of regions in the SMRT amino terminus to act in transcriptional repression was examined. […] Repression was determined relative to the basal activity of the reporter in the presence of the GAL-DBD alone.

RAR403 (carboxy-terminal deletion mutant of RAR) (from UniProt P10276 1-403) (receptor)
fold interaction relative to wild type RAR (phosphoimager) [1]: 4 fold

CC1=C(/C=C/C(C)=C/C=C/C(C)=C/C(=O)O)C(C)(C)CCC1 [atRA, all-trans retinoic acid]
dissociation of the interaction between E52 and RAR by ligand (E52-RAR interaction): can be dissociated

B1: Gal4-c-SMRT (aa 981 to C terminus) (other)
chain: MKLLSSIEQACDICRLKKLKCSKEKPKCAKCLKNNWECRYSPKTKRSPLTRAHLTEVESRLERLEQLFLLIFPREDLDMILKMDSLQDIKALLTGLFVQDNVNKDAVTDRLASVETDMPLTLRQHRISATSSSEESSNKGQRQLTVSAPHHASPDPPAPPASASDPHREKTQSKPFSIQELELRSLGYHGSSYSPEGVEPVSPVSSPSLTHDKGLPKHLEELDKSHLEGELRPKQPGPVKLGGEAAHLPHLRPLPESQPSSSPLLQTAPGVKGHQRVVTLAQHISEVITQDYTRHHPQQLSAPLPAPLYSFPGASCPVLDLRRPPSDLYLPPPDHGAPARGSPHSEGGKRSPEPNKTSVLGGGEDGIEPVSPPEGMTEPGHSRSAVYPLLYRDGEQTEPSRMGSKSPGNTSQPPAFFSKLTESNSAMVKSKKQEINKKLNTHNRNEPEYNISQPGTEIFNMPAITGTGLMTYRSQAVQEHASTNMGLEAIIRKALMGGGKAKVSGRPSSRKAKSPAPGLASGDRPPSVSSVHSEGDCNRRTPLTNRVWEDRPSSAGSTPFPYNPLIMRLQAGVMASPPPPGLPAGSGPLAGPHHAWDEEPKPLLCSQYETLSDSE
notes: also called vertebrate corepressor
binding result (EcR A483T): no binding

B2: TR160 (rTRα Pro 160->Arg mutant, full length) (receptor, rat (printed as rTRα), UniProt P63059 1-492, looked up)
chain: MEQKPSKVECGSDPEENSARSPDGKRKRKNGQCPLKSSMSGYIPSYLDKDEQCVVCGDKATGYHYRCITCEGCKGFFRRTIQKNLHPTYSCKYDSCCVIDKITRNQCQLCRFKKCIAVGMAMDLVLDDSKRVAKRKLIEQNRERRRKEEMIRSLQQRPERTPEEWDLIHVATEAHRSTNAQGSHWKQRRKFLPDDIGQSPIVSMPDGDKVDLEAFSEFTKIITPAITRVVDFAKKLPMFSELPCEDQIILLKGCCMEIMSLRAAVRYDPESDTLTLSGEMAVKREQLKNGGLGVVSDAIFELGKSLSAFNLDDTEVALLQAVLLMSTDRSGLLCVDKIEKSQEAYLLAFEHYVNHRKHNIPHFWPKLLMKVTDLRMIGACHASRFLHMKVECPTELFPPLFLEVFEDQEV
notes: mature; 35S-labelled probe; also called rTRα R160 mutant; TR160 mutant
fold lower signal relative to rTRα (phosphoimager) [2]: 10 fold lower

B3: m-SMRTβ (amino acids 1 to 813): construct containing the entire amino terminus of m-SMRTβ (protein, UniProt Q9WU42 1-813, looked up, fragment)
chain: MSGSTQPVAQTWRAAEPRYPPHGISYPVQIARSHTDVGLLEYQHHPRDYTSHLSPGSIIQPQRRRPSLLSEFQPGSERSQELHLRPESRTFLPELGKPDIEFTESKRPRLELLPDTLLRPSPLLATGQPSGSEDLTKDRSLAGKLEPVSPPSPPHADPELELAPSRLSKEELIQNMDRVDREITMVEQQISKLKKKQQQLEEEAAKPPEPEKPVSPPPIESKHRSLVQIIYDENRKKAEAAHRILEGLGPQVELPLYNQPSDTRQYHENIKINQAMRKKLILYFKRRNHARKQWEQRFCQRYDQLMEAWEKKVERIENNPRRRAKESKVREYYEKQFPEIRKQRELQERMQSRVGQRGSGLSMSAARSEHEVSEIIDGLSEQENLEKQMRQLAVIPPMLYDADQQRIKFINMNGLMDDPMKVYKDRQVTNMWSEQERDTFREKFMQHPKNFGLIASFLERKTVAECVLYYYLTKKNENYKSLVRRSYRRRGKSQQQQQQQQQQQQQQMARSSQEEKEEKEKEKEADKEEEKQDAENEKEELSKEKTDDTSGEDNDEKEAVASKGRKTANSQGRRKGRITRSMANEANHEETATPQQSSELASMEMNESSRWTEEEMETAKKGLLEHGRNWSAIARMVGSKTVSQCKNFYFNYKKRQNLDEILQQHKLKMEKERNARRKKKKTPAAASEETAFPPAAEDEEMEASGASANEEELAEEAEASQASGNEVPRVGECSGPAAVNNSSDTESVPSPRSEATKDTGPKPTGTEALPAATQPPVPPPEEPAVAPAEPSPVPDASGPPSPEPSPSPAAPPA
modifications: SMRTbeta
repression relative to basal reporter activity with GAL-DBD alone [3]: about 2.6 fold

B4: v-erbA (naturally occurring oncogene, oncogenic TR variant) (receptor)
chain: REEQVTSEQAKFWLGLGGGRVSPPGPECIEKPATERRIDKGEEMGETTVQRDAKMAPEKMATPKTVGTSCYQCGTATGCNCVTASAPPPPYVGSGLYPSLAGAGEQGQGGDTPRGAEQPRAEPGHAGQAPGPALTDWARIREELASTGPPVVAMPVVIKTEGPAWTPLEPEDTRWLDGKHKRKSSQCLVKSSMSGYIPSCLDKDEQCVVCGDKATGYHYRCITCEGCKSFFRRTIQKNLHPTYSCTYDGCCVIDKITRNQCQLCRFKKCISVGMAMDLVLDDSKRVAKRKLIEENRERRRKEEMIKSLQHRPSPSAEEWELIHVVTEAHRSTNAQGSHWKQRRKFLLEDIGQSPMASMLDGDKVDLEAFSEFTKIITPAITRVVDFAKNLPMFSELPCEDQIILLKGCCMEIMSLRAAVRYDPESETLTLSGEMAVKREQLKNGGLGVVSDAIFDLGKSLSAFNLDDTEVALLQAVLLMSSDRTGLICVDKIEKCQESYLLAFEHYINYRKHNIPHFWSKLLMKVADLRMIGAYHASRFLHMKVECPTELSPQEV
fold interaction relative to hTRβ (phosphoimager) [2]: 18 fold
